Target: IL-27 receptor (on BL-2 cells) (human) (UniProt Q6UWB1)
Assay: cell-based or functional assay

IL-27 receptor (on BL-2 cells) (human), sequence (Q6UWB1 33-636, chain 1 of 2): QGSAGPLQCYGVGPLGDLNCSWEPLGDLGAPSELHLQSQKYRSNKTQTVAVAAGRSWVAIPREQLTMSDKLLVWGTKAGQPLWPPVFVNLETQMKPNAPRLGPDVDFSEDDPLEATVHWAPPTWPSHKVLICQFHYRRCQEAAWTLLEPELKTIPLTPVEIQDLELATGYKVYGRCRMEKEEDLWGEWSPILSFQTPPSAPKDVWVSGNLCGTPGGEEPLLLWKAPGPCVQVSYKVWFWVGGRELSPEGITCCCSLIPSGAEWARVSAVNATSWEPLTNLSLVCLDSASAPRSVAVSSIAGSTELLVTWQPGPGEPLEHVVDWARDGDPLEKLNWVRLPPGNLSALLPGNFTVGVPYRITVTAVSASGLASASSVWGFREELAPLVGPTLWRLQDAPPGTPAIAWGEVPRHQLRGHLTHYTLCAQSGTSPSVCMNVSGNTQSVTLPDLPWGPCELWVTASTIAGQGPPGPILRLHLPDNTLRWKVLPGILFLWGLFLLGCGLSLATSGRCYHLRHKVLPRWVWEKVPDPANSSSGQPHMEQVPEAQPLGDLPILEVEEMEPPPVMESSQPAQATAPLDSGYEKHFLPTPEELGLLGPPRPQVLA
IL-27 receptor (on BL-2 cells) (human), sequence (P40189 23-918, chain 2 of 2, further chain): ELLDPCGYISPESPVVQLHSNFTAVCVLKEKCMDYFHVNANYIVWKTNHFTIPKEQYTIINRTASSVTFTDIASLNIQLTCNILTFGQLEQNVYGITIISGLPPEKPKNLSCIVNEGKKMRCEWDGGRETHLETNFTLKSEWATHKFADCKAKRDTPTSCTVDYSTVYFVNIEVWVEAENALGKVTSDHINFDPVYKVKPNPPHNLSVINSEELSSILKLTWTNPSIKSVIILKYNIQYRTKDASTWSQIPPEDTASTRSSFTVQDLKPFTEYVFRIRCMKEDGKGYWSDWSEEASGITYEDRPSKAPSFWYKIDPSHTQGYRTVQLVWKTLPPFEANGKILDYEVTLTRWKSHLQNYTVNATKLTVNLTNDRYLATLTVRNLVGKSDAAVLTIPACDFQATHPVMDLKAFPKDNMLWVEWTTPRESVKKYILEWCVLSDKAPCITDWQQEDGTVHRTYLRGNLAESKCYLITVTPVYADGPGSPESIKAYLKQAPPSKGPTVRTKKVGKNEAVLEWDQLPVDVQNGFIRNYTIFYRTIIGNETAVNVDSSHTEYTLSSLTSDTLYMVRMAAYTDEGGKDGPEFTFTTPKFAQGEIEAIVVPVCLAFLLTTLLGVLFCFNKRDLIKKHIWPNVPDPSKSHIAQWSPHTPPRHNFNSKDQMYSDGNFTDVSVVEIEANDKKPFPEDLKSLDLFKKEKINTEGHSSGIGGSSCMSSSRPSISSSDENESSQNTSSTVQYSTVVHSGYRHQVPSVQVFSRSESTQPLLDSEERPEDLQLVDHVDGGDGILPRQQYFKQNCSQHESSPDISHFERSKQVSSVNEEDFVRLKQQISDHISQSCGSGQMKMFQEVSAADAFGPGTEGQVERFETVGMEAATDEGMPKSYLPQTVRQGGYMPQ

## IL-27alpha^L162C,T238A,S240A (mutein of the alpha-subunit of human Interleukin 27) (from UniProt Q8NEV9 29-243) (ligand)
  STAT1 activation (immunoblotting against phosphorylated STAT1), BL-2 cells, 60 minutes, 1000 ng/mL (fold over IL-27alpha^L162C): 8.5

— patent US20220380426A1
